Experimental data published in paper PMC3034190 (Molecular Microbiology, 2010).

Molecular target: the molecule itself
Assay: crystal structure

B1: MSMEG_3380 (FDR-B family F420H2-dependent reductase), recombinant, for crystallography (enzyme)
chain: MVAVPEGYESLLERPLYGHLATVRPDGTPQVNAMWFAWDGEVLRFTHTTKRQKYRNIKANPAVAMSVIDPDNPYRYLEVRGLVEDIVPDPTGAFYLKLNDRYDGPLTEPPADKADRVIIVVRPTAFSKQ
modifications: seleno-methionine labelled
Question: Does B1 bind?
Answer: binds
